Assay [1] has as its target muc-1 on muc-1 positive human cancer cells (DU145; T47D) (human) (UniProt P15941). Put plainly: flow cytometry, dye labelled IgG on muc-1 positive T47D (printed T74D) cells. Background: In flow cytometry, cells or beads pass a laser one at a time.
Assay [2] shares this target. Put plainly: flow cytometry, dye labelled IgG on DU145 cells, higher dose range.
The target is the same in assay [3]. Put plainly: flow cytometry, dye labelled IgG 0.2 to 200 nM on DU145 cells.

Sequence of UniProt P15941 (P15941 24-1255, stated change not applied): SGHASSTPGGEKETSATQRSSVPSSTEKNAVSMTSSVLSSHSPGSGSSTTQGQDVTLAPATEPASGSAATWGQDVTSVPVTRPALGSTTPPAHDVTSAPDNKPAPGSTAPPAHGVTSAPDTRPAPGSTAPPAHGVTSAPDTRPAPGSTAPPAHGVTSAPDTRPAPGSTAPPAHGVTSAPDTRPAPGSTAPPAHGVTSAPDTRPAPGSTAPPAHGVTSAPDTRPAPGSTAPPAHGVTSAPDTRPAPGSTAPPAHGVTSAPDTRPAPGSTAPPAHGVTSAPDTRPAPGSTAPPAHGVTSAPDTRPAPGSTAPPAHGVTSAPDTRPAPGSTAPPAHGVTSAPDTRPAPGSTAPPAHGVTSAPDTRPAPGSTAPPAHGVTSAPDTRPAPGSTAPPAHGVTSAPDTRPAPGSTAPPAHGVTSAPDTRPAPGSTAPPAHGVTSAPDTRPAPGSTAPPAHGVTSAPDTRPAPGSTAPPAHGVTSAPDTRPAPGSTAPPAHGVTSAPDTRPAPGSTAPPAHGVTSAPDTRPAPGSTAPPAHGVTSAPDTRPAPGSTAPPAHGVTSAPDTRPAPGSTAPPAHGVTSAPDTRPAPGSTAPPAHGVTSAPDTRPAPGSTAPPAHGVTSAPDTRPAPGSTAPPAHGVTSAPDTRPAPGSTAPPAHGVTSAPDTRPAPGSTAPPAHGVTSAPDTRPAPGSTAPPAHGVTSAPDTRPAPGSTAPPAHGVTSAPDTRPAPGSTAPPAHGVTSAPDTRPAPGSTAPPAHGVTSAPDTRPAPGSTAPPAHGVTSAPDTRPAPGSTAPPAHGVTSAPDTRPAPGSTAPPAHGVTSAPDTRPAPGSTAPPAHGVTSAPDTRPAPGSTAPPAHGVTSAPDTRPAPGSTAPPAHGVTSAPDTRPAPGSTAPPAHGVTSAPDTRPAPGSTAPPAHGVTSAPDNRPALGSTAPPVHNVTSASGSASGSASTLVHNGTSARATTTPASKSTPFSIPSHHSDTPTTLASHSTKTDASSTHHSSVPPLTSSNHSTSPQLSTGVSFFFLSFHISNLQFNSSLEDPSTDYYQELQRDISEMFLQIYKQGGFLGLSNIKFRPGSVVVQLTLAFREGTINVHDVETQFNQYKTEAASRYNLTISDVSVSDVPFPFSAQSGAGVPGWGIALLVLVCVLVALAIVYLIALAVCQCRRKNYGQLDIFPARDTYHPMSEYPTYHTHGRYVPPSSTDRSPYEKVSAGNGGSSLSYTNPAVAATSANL

As to “hCTM01 S171C mutant IgG reduced with 5 mM 2-ME and labelled with AlexaFluor488-C5-maleimide (approximately 4 dyes per IgG; 3.9 dyes per IgG in FIG. 4) (antibody)”, in assay [1], the IgG concentration at which binding plateaus was greater than 100 nM.

For “wild type CTM01 IgG labelled via lysine modification with AlexaFluor488-NHS ester (2 dyes per IgG) (antibody)”, the percent lower binding than kappa cys171-dye labelled S171C mutant IgG in assay [2] was found to be 8%.

Substance “wild type CTM01 IgG labelled with AlexaFluor 488-C5-maleimide under identical conditions (0.7 dyes per IgG) (antibody)” gave a fold lower degree of binding than the S171C mutant labelled via kappa cys171 in assay [3] of 6 fold.

“wild type hCTM01 IgG reduced with 20 mM 2-ME and labelled with AlexaFluor488-C5-maleimide (approximately 4 dyes per IgG; 3.6 dyes per IgG in FIG. 4) (antibody)”: the IgG concentration at which binding plateaus in assay [1] is 20 nM.
